Strand notation (5' to 3'): a small letter for the sugar, then the base; units joined by * are phosphorothioate-linked, units joined directly phosphodiester-linked; [ ] holds rarer units or linkages, { } end groups; capitals alone tell only the bases. m = 2'-O-methyl; r = 2'-OH (RNA)

One data set has as its system TTR. The data set is described as follows: TTR editing in primary human hepatocytes transfected with Spy Cas9 protein and sgRNAs (Table 12). Format: cell-based. To be noted: primary human hepatocytes transfected with Spy Cas9 protein (RNP) and sgRNAs. The method, then:
Primary liver hepatocytes. Primary human liver hepatocytes (PHH) and primary cynomolgus liver hepatocytes (PCH) (Gibco) were cultured per the manufacturer's protocol (Invitrogen, protocol 11.28.2012). In brief, the cells were thawed and resuspended in hepatocyte thawing medium with supplements (Gibco, Cat. CM7000) followed by centrifugation at 100 g for 10 minutes for human and 80 g for 4 minutes for cyno. The supernatant was discarded and the pelleted cells resuspended in hepatocyte plating medium plus supplement pack (Invitrogen, Cat. A1217601 and CM3000). Cells were counted and plated on Bio-coat collagen I coated 96-well plates (ThermoFisher, Cat. 877272) at a density of 33,000 cells/well for human or 60,000 cells/well for cyno (or 65,000 cells/well when assaying effects on TTR protein, described further below). Plated cells were allowed to settle and adhere for 6 or 24 hours in a tissue culture incubator at 37° C. and 5% CO2 atmosphere. After incubation cells were checked for monolayer formation and media was replaced with hepatocyte culture medium with serum-free supplement pack (Invitrogen, Cat. A1217601 and CM4000).
[…] formation was performed prior to electroporation or transfection of Spy Cas9 protein loaded with guide RNAs (RNPs) onto cells. For dual guide (dgRNAs), individual crRNA and trRNA was pre-annealed by mixing equivalent amounts of reagent and incubating at 95° C. for 2 min and cooling to room temperature. Single guide (sgRNAs) were boiled at 95° C. for 2 min and cooling to room temperature. The boiled dgRNA or sgRNA was incubated with Spy Cas9 protein in Optimem for 10 minutes at room temperature to form a ribonucleoprotein (RNP) complex.
For RNP lipoplex transfections, cells were transfected with Lipofectamine RNAiMAX (ThermoFisher, Cat. 13778150) per the manufacturer's protocol. Cells were transfected with an RNP containing Spy Cas9 (10 nM), individual guide (10 nM), tracer RNA (10 nM), Lipofectamine RNAiMAX (1.0 μL/well) and OptiMem. RNP formation was performed as described above.
Transfected cells were harvested post-transfection at 24, 48, or 72 hours. The genomic DNA was extracted from each well of a 96-well plate using 50 μL/well BuccalAmp DNA Extraction solution (Epicentre, Cat. QE09050) per manufacturer's protocol. All DNA samples were subjected to PCR and subsequent NGS analyses, as described herein.
To quantitatively determine the efficiency of editing at the target location in the genome, sequencing was utilized to identify the presence of insertions and deletions introduced by gene editing.
Primers were designed around the target site within the gene of interest (e.g. TTR), and the genomic area of interest was amplified.
Additional PCR was performed per the manufacturer's protocols (Illumina) to add chemistry for sequencing. The amplicons were sequenced on an Illumina MiSeq instrument. The reads were aligned to a reference genome (e.g., the human reference genome (hg38), the cynomologus reference genome (mf5), the rat reference genome (rn6), or the mouse reference genome (mm10)) after eliminating those having low quality scores. The resulting files containing the reads were mapped to the reference genome (BAM files), where reads that overlapped the target region of interest were selected and the number of wild type reads versus the number of reads which contain an insertion, substitution, or deletion was calculated.
The editing percentage (e.g., the “editing efficiency” or “percent editing” or “indel frequency”) is defined as the total number of sequence reads with insertions/deletions (“indels”) or substitutions over the total number of sequence reads, including wild type.
Guides in modified sgRNA format targeting human and/or cyno TTR were delivered to primary human hepatocytes and primary cyno hepatocytes as described in Example 1. […]

A further data set relates to TTR mRNA. The data set is described as follows: TTR mRNA knockdown in primary human hepatocytes by quantitative PCR (Tables 34, 35). To be noted: TTR mRNA in PHH; LNP dose 100 ng mRNA cargo; 96 hours after treatment; separate experiment; vs untreated control. The format is cell-based. The method, then:
In one experiment, PHH were cultured and treated with LNPs comprising Cas9 mRNA (SEQ ID NO:1) and a gRNA of interest (See FIG. 29, Table 34), as described in Example 4. The LNPs were prepared using the cross-flow procedure described above and purified and concentrated using PD-10 columns and Amicon centrifugal filter units, respectively. The LNPs were formulated with an N:P ratio of 6.0 and contained Lipid A, Cholesterol, DSPC, and PEG2k-DMG in a 50:38:9:2 molar ratio, respectively. The LNPs comprised a gRNA:mRNA ratio of 1:2, and the cells were treated at a dose of 300 ng (with respect to the amount of mRNA cargo delivered).
(§1) Ninety-six (96) hours following LNP treatment (with biological triplicates for each condition), mRNA was purified from PHH cells using the Dynabeads mRNA DIRECT Kit (ThermoFisher Scientific) according to the manufacturer's protocol. Reverse Transcription (RT) was performed with Maxima reverse transcriptase (ThermoFisher Scientific) and a poly-dT primer. The resulting cDNA was purified with Ampure XP Beads (Agencourt). For Quantitative PCR, 2% of the purified cDNA was amplified with Taqman Fast Advanced Mastermix and 3 Taqman probe sets, TTR (Assay ID: Hs00174914_m1), GAPDH (Assay ID: Hs02786624_g1), and PPIB (Assay ID: Hs00168719_m1). The assays were run on the QuantStudio 7 Flex Real Time PCR System according to the manufacturer's instructions (Life Technologies). Relative expression of TTR mRNA was calculated by normalizing to the endogenous controls (GAPDH and PPIB) individually, and then averaged.
In a separate experiment, TTR mRNA knockdown was evaluated following treatment with LNPs comprising G000480, G000486, and G000502. The LNPs were formulated and PHH were cultured and treated with the LNPs, each as described in the experiment above in this Example with the exception that the cells were treated at a dose of 100 ng (with respect to the amount of mRNA cargo delivered).
as §1, with “(single treatment” for “(with biological triplicates”, “the High Capacity cDNA Reverse Transcription Kit” for “Maxima reverse transcriptase”, “according to the manufacturer's instructions.” for “and a poly-dT primer. The resulting cDNA was purified with Ampure XP Beads (Agencourt).”, “the” for “the purified”

B1: G000501: TTR sgRNA modified sequence, Human, SEQ ID No. 108; guide sequence of CR005300 (nucleic acid)
guide: mU*mC*mA*rCrArGrArArArCrArCrUrCrArCrCrGrUrArGrUrUrUrUrArGrAmGmCmUmAmGmAmAmAmUmAmGmCrArArGrUrUrArArArArUrArArGrGrCrUrArGrUrCrCrGrUrUrArUrCrAmAmCmUmUmGmAmAmAmAmAmGmUmGmGmCmAmCmCmGmAmGmUmCmGmGmUmGmCmU*mU*mU*mU
Consider B1, for which, in the data set with TTR, the “Avg % Deletion” value turned out to be 6.00%, the “Avg % Edit” value amounted to 60.93% and the “Avg % Insert” value was 55.13%.

B2: G000497: TTR sgRNA modified sequence, Human, SEQ ID No. 104; guide sequence of CR003335 (nucleic acid)
guide: mC*mU*mG*rCrUrCrCrUrCrCrUrCrUrGrCrCrUrUrGrCrGrUrUrUrUrArGrAmGmCmUmAmGmAmAmAmUmAmGmCrArArGrUrUrArArArArUrArArGrGrCrUrArGrUrCrCrGrUrUrArUrCrAmAmCmUmUmGmAmAmAmAmAmGmUmGmGmCmAmCmCmGmAmGmUmCmGmGmUmGmCmU*mU*mU*mU
Regarding B2, in the data set with TTR, the “Avg % Deletion” value turned out to be 8.73%, the “Avg % Edit” value came out at 59.67% and the “Avg % Insert” value turned out to be 51.10%.

B3: G000491: TTR sgRNA modified sequence, Human, SEQ ID No. 98; guide sequence of CR003338 (nucleic acid)
guide: mA*mU*mA*rCrCrArGrUrCrCrArGrCrArArGrGrCrArGrGrUrUrUrUrArGrAmGmCmUmAmGmAmAmAmUmAmGmCrArArGrUrUrArArArArUrArArGrGrCrUrArGrUrCrCrGrUrUrArUrCrAmAmCmUmUmGmAmAmAmAmAmGmUmGmGmCmAmCmCmGmAmGmUmCmGmGmUmGmCmU*mU*mU*mU
Take B3: in the data set with TTR, the “Avg % Deletion” value is reported as 4.33%, the “Avg % Edit” value is 74.30% and the “Avg % Insert” value is 70.27%.

B4: G000498: TTR sgRNA modified sequence, Human, SEQ ID No. 105; guide sequence of CR003359 (nucleic acid)
guide: mA*mG*mU*rGrArGrUrCrUrGrGrArGrArGrCrUrGrCrArGrUrUrUrUrArGrAmGmCmUmAmGmAmAmAmUmAmGmCrArArGrUrUrArArArArUrArArGrGrCrUrArGrUrCrCrGrUrUrArUrCrAmAmCmUmUmGmAmAmAmAmAmGmUmGmGmCmAmCmCmGmAmGmUmCmGmGmUmGmCmU*mU*mU*mU
On to B4, for which, in the data set on TTR, the “Avg % Deletion” value was found to be 12.70%, the “Avg % Edit” value was 72.80% and the “Avg % Insert” value stood at 60.17%.

B5: G000496: TTR sgRNA modified sequence, Human, SEQ ID No. 103; guide sequence of CR005304 (nucleic acid)
guide: mG*mG*mC*rCrGrUrGrCrArUrGrUrGrUrUrCrArGrArArGrUrUrUrUrArGrAmGmCmUmAmGmAmAmAmUmAmGmCrArArGrUrUrArArArArUrArArGrGrCrUrArGrUrCrCrGrUrUrArUrCrAmAmCmUmUmGmAmAmAmAmAmGmUmGmGmCmAmCmCmGmAmGmUmCmGmGmUmGmCmU*mU*mU*mU
For B5, in the data set on TTR, the “Avg % Deletion” value is recorded as 27.67%, the “Avg % Edit” value was found to be 72.33% and the “Avg % Insert” value was 44.73%.

B6: G000485: TTR sgRNA modified sequence, Human, SEQ ID No. 92; guide sequence of CR003336 (nucleic acid)
guide: mC*mC*mU*rCrCrUrCrUrGrCrCrUrUrGrCrUrGrGrArCrGrUrUrUrUrArGrAmGmCmUmAmGmAmAmAmUmAmGmCrArArGrUrUrArArArArUrArArGrGrCrUrArGrUrCrCrGrUrUrArUrCrAmAmCmUmUmGmAmAmAmAmAmGmUmGmGmCmAmCmCmGmAmGmUmCmGmGmUmGmCmU*mU*mU*mU
As for B6, in the data set with TTR, the “Avg % Deletion” value came to 3.13%, the “Avg % Edit” value worked out at 56.07% and the “Avg % Insert” value amounted to 53.07%.

B7: G000502: TTR Cyno specific sgRNA modified sequence, SEQ ID No. 114; guide sequence of CR000689; cross homologous between mouse and cyno (nucleic acid)
guide: mA*mC*mA*rCrArArArUrArCrCrArGrUrCrCrArGrCrGrGrUrUrUrUrArGrAmGmCmUmAmGmAmAmAmUmAmGmCrArArGrUrUrArArArArUrArArGrGrCrUrArGrUrCrCrGrUrUrArUrCrAmAmCmUmUmGmAmAmAmAmAmGmUmGmGmCmAmCmCmGmAmGmUmCmGmGmUmGmCmU*mU*mU*mU
As to B7, the “Avg % Knockdown” value in the data set on TTR mRNA is listed as 90.94%.

B8: G000492: TTR sgRNA modified sequence, Human, SEQ ID No. 99; guide sequence of CR003342 (nucleic acid)
guide: mC*mU*mU*rCrUrCrUrArCrArCrCrCrArGrGrGrCrArCrGrUrUrUrUrArGrAmGmCmUmAmGmAmAmAmUmAmGmCrArArGrUrUrArArArArUrArArGrGrCrUrArGrUrCrCrGrUrUrArUrCrAmAmCmUmUmGmAmAmAmAmAmGmUmGmGmCmAmCmCmGmAmGmUmCmGmGmUmGmCmU*mU*mU*mU
On to B8, for which, in the data set on TTR, the “Avg % Deletion” value turned out to be 3.13%, the “Avg % Edit” value came out at 60.97% and the “Avg % Insert” value stood at 57.90%.

B9: G000495: TTR sgRNA modified sequence, Human, SEQ ID No. 102; guide sequence of CR003343 (nucleic acid)
guide: mC*mA*mG*rArGrGrArCrArCrUrUrGrGrArUrUrCrArCrGrUrUrUrUrArGrAmGmCmUmAmGmAmAmAmUmAmGmCrArArGrUrUrArArArArUrArArGrGrCrUrArGrUrCrCrGrUrUrArUrCrAmAmCmUmUmGmAmAmAmAmAmGmUmGmGmCmAmCmCmGmAmGmUmCmGmGmUmGmCmU*mU*mU*mU
B9: in the data set with TTR, the “Avg % Deletion” value is 5.37%, the “Avg % Edit” value is recorded as 50.80% and the “Avg % Insert” value is 45.80%.

B10: G000487: TTR sgRNA modified sequence, Human, SEQ ID No. 94; guide sequence of CR003357 (nucleic acid)
guide: mU*mU*mC*rUrUrUrGrGrCrArArCrUrUrArCrCrCrArGrGrUrUrUrUrArGrAmGmCmUmAmGmAmAmAmUmAmGmCrArArGrUrUrArArArArUrArArGrGrCrUrArGrUrCrCrGrUrUrArUrCrAmAmCmUmUmGmAmAmAmAmAmGmUmGmGmCmAmCmCmGmAmGmUmCmGmGmUmGmCmU*mU*mU*mU
Regarding B10, in the data set on TTR, the “Avg % Deletion” value amounted to 2.07%, the “Avg % Edit” value worked out at 67.30% and the “Avg % Insert” value stood at 65.27%.

Source of the values: US11795460B2, “Compositions and methods for TTR gene editing and treating ATTR amyloidosis” (Intellia Therapeutics, Inc., priority 2017, dated 2023).
